Data from a protein production outcome set (Wang et al. 2014).

Assay: label from the status in PepcDB records

| Sequence | protein production |
| --- | --- |
| MVTYSTFIVIAIYLILTILISWFVNQRSIGNTDFSTGGRQFGWFTAGVSILATYISAMTFIGMPGWVYQSGMEALNIHLNYPIVIFFAVVFFIPVFYRMGFTSIYEYLEHRFGVYARTINSVVFILVQCISSGVILYAIALILIQILPISIVEAIVYITLFTACYTYAGGISTVIWTDMLQSAVLIAGSVAIFVLLLLQVDGVHGVSREQLNIINLQFDLGVDTTLWAGVVAVSFLHMSVYGTNQLIIQRTLATRCEKTAQKSMLLCGYGAFFIYFFFALLGVLLSIFYQERHFTNSNEVILDFVFHHTNPWVIGLIISALAAAAMSTLDSTYNSMATVATFDLYQRFIRRNAPDHHYQAVARKMSLVAAGLVVIPALLAVSNESVLKTIASLTSIFVGIRLGSFVLGLFSNQANEKGVIAGSIISIAAVLGARLMDIAWPWFAPIGTVFFLVSGVVISRYWGDNSIQQQAFIARQKHLFATPTMSQYGLLVFAAVTIAVCAIIPDWLYNALS | failed |
| MVVDSVTMEEEDTKEEAAMVATEGEDTKEEEDDTKEAVGDKEEGEVTAATAAATKVTMAAQGVVHMPEKRFRLSLVTKST | failed |
| MVVIDPTLLGILACPQDKGPLLLVGDELLYNPRLRRAYPIENGIPVLLIDEARDVGADEHETLLARAAGEA | not failed |
| MVVSIITPLYKVEDFIARCADSLFRQSYTEIEYIFVDDCSSDRSVEVLLQVAERYPQLQQQIRILHHESNRGVAAARETGLAAATGEYVYWVDADDWIEPDAIEKMVVRSEQGQKDIIACGWYLCFRQNERRMPMPCYADAETALRGMLSGTMRWNLWLYMIKRDLYLMNDIHFMEGENVGEDMLVLIKLFSHAKSIGFVKDAFYHYVKQNENSLTRLSPEQQMKRQMRNLQAATDYLVTHFIGKYEKEINFFKLNAKMPLLISNDKNSYRTWTACFPEANKYIMANKRQTLRMRLVQLMAAKRQFWLVELYYQLVFKFVYGILYK | failed |
| MVVVCASHIQPAIICRFTWLRFLMEIILIRHGKPTSANNPVLNAVDFTKWVRRYNFSDVSTNSRPDSILDEYKSHYIVSSDLERAIHSASIYTGQSPELTSKLYREMEIPRYKFPLRFKAMTWVYINRAFWMLGLKGSFESYRQAKIRAELASDHLVELAREQDKVILFGHGYLNLHIRRSLIKKGWKLNSKSNGFWGISSLEG | failed |
| MVVVCASHIQPAIICRFTWLRFLMEIILIRHGKPTSANNPVLNAVDFTKWVRRYNFSDVSTNSRPDSILDEYKSHYIVSSDLERAIHSASIYTGQSPELTSKLYREMEIPRYKFPLRFKAMTWVYINRAFWMLGLKGSFESYRQAKIRAELASDHLVELAREQDKVILFGHGYLNLHIRRSLIKKGWKLNSKSNGFWGISSLEGLEHHHHHH | failed |
| MVVYPNEEAENGSLRFVDFVNKTFALLGNSPIKKFSLRHEPRLYCVDAYLRWIFTAMEQERGLLELHLYADRYYYPVGIERELFTSNTLVKLTLSGRYDFQVETVFLPALKSLSLSSSFEIGFDKYCNLLDGFPALEELYIREAVSELSNALLSSGTFVKCASIKRLVVFTDCPKFKEDEDHQEPCFIAPSLVYLDYSSYLSENYDLIDLNSLVEARLNLRLLESFNNYGSSDNDGDVYGWDFNVPFDYYGDVTNLVAGITNITTLHLSPDSLEVFHFRCKSIPVFNNLLLNLSIESNKRNGWQVMPLLIRSCPNLHTLVIKGFVHRVTSKCGDACACIPKKQRKIGKKEEISEYGGSFQELEQMRHFLGKLERLETVKVGVHAENNNNNEFLRANLLTLPRLSSKCNNIQFI | failed |
| MVWAPLGPPRTDCLTLLHTPSKDSPKMSLEWLVAWSWSLDGLRDCIATGIQSVRDCDTTAVITVACLLVLFVWYCYHVGREQPRPYVSVNSLMQAADANGLQNGYVYCQSPECVRCTHNEGLNQKLYHNLQEYAKRYSWSGMGRIHKGIREQGRYLNSRPSIQKPEVFFLPDLPTTPYFSRDAQKHDVEVLERNFQTILCEFETLYKAFSNCSLPQGWKMNSTPSGEWFTFYLVNQGVCVPRNCRKCPRTYRLLGSLRTCIGNNVFGNACISVLSPGTVITEHYGPTNIRIRCHLGLKTPNGCELVVGGEPQCWAEGRCLLFDDSFLHAAFHEGSAEDGPRVVFMVDLWHPNVAAAERQALDFIFAPGR | failed |
| MVWPFKSKFRKQIARIEITGAIASGTRKRVLEALKTVEERKFPALLLRIDSPGGTVGDSQEIYSALKRLREKIKIVASFGNISASGGVYIGMGAEHIMANPGTITGSIGVILRGNNLERLLDKIGVSFKVIKSGPYKDILSFDRELTEPEQDILQELIDTSYQQFVQTVAEGRSLAVDKVKSFADGRIFTGQQALELGVVDRLGTEEEARRWTAELVGLDPEKTPCYTLEERKPLLSRVLPGSRKGYSRLGASIDWLEFEMSTSGLPLWLYRP | failed |
